# Measured values reported in patent publication US20240084003A1 (SIMCERE ZAIMING PHARMACEUTICAL, published 2024).
# T1: human CD22 domain1-4-His (human, UniProt P20273 20-425)
# T1 construct: also called hCD22 domain1-4-His; not shown: His tag
# T1 sequence: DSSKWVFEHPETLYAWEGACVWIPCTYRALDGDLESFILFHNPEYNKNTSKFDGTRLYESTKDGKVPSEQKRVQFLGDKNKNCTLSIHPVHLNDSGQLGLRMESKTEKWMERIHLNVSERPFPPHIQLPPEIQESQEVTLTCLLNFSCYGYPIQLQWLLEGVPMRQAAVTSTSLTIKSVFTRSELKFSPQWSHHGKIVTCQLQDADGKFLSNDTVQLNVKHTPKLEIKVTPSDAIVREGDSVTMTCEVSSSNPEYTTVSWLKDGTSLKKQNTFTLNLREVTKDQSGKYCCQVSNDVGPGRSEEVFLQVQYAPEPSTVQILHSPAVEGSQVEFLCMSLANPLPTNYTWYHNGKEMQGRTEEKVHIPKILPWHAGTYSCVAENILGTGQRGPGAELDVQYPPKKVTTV
# T2: rhesus monkey CD22-ECD-His protein (rhesus monkey, UniProt H9G1X2 18-686)
# T2 construct: extracellular domain; also called monkey CD22 protein
# T2 sequence: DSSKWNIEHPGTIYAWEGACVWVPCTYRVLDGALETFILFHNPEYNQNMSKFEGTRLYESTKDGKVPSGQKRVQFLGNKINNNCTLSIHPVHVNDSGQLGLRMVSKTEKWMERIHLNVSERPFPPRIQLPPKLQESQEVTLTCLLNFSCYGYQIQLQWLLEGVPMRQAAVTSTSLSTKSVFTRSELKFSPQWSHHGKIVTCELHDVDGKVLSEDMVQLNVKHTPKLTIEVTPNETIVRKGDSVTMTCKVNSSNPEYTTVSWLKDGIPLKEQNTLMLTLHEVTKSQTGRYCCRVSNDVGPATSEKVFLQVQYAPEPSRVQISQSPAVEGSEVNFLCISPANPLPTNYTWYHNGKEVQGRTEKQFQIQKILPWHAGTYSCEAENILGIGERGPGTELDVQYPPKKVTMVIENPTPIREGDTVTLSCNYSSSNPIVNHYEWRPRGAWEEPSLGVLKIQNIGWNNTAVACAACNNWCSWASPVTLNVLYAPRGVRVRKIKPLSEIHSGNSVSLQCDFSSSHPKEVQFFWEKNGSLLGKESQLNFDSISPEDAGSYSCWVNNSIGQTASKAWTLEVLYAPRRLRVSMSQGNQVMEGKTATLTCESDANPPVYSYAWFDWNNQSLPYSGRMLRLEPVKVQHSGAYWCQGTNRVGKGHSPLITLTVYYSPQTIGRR
# T3: human CD22-ECD-His protein (human, UniProt P20273 20-687)
# T3 construct: Recombinant, from HEK293E cells; also called hCD22-ECD-His; human CD22-His protein; not shown: His tag
# T3 sequence: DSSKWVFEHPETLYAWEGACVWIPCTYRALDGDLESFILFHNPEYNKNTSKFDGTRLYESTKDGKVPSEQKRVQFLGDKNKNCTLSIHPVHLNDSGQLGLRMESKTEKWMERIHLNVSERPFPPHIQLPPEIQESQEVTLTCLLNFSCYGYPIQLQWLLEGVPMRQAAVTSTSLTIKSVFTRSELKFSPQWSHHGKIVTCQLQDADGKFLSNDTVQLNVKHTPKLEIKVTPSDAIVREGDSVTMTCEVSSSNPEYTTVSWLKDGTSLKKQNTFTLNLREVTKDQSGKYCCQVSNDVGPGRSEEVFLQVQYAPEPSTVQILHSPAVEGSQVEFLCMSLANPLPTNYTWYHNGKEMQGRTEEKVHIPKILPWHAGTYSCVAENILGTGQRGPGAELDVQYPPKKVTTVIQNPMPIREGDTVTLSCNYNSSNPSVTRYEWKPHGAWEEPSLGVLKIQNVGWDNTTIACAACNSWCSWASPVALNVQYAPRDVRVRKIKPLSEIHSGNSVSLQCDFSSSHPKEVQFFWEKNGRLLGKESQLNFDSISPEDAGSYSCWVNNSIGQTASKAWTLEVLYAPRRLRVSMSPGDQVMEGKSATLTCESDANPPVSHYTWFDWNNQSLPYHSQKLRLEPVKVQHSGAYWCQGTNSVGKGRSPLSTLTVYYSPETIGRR
# Tests used:
# human CD22 domain1-4-His = biological target: T1, human CD22 domain1-4-His; test: ELISA, plate coated with human CD22 domain1-4-His
# [1] = biological target: T2, rhesus monkey CD22-ECD-His protein; test: SPR (Biacore), antibody captured on Protein A chip, rhesus CD22 in solution
# [2] = biological target: T3, human CD22-ECD-His protein; test: SPR (Biacore), antibody captured on Protein A chip, CD22-ECD-His in solution
# Method in brief: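 Antibody captured on Protein A chip, then human CD22-ECD-His injected for 240 s at 30 μL/min, 5 concentrations from 200 nM (1:1 dilution), dissociation up to 600 s, in HBS-EP+ at 25° C. Responses double-referenced; apparent KD and kinetic constants fitted to a Langmuir 1:1 model.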
binding result (human CD22 domain1-4-His),Kd [1] [nM],koff [1] [s⁻¹],kon [1] [M⁻¹ s⁻¹],Kd [2] [nM],koff [2] [s⁻¹],kon [2] [M⁻¹ s⁻¹],Binder
no binding,27.5,0.000528,19200,22.7,0.000533,23500,"F2.151.13 (antibody, human IgG1, lambda, V domains shown, Chimeric IgG1 lambda) VH: QVHLQQPGTELMKPGASVKLSCKATGYTFRDYWLEWVKQRPGHGLEWIGEILPGSGNAYYNEKFKGKATFTADTSSNTAYMQLSSLTTEDSAIYYCARVYSNWYFDAWGKGTTVTVSS VL: QAVVTQESALTTSPGETVTLTCRSSTGAVTTSNYANWVQEKPDHLFTGLIGGTNNQAPGVPARFSGSLIGDKAALTISGAQTEDEAIYFCALWFSNHWVFGGGTKLTVLG"
no binding,44.2,0.000596,13500,102,0.00102,9980,"F1.200.11 (antibody, human IgG1, kappa, V domains shown, Chimeric IgG1 kappa) VH: QNQLVQSGPELKKPGETVKISCKASGYTFTTAGMQWVQKMPGKGFKWIGWINTLSGEPKYAEDFKGRFAFSLETSATTAYLQISNLKNEDTATYFCARAYYSNLYWYFDVWGTGTTVTVSS VL: DIVMTQSQKFMSTTVGDRVTITCKASQNVVTAVAWYQQKPGQSPKVLIYSASNRYSGVPDRFTGSGSGTDFTLTISNMHSEDLANYFCHQYSSYPFTFGSGTKLEIKR"
no binding,23.1,0.0016,69200,1.08,0.000244,225000,"F1.192.1 (antibody, human IgG1, kappa, V domains shown, Chimeric IgG1 kappa) VH: AVQLQQSGVELVRPGASVKLSCTGSDFNIKEDYIHWVKQRPEQGLEWIGWIDPENGDTEYASKFQGKATITADTSSNTAYLQLSSLTSEDTAVYYCATYGSLDYWGQGTTLTVSS VL: DIKMTQSPSSMYAFLGERVTITCKASQGINSFLTWFQQKPGKSPKTLIYRANRLVDGVPSRFSGSGSGQDYSLTISSLEYEDVGIYYCLQYDEFPRTFGGGTKLEIKR"
no binding,17.3,0.000448,25900,0.514,0.000154,299000,"F1.105.11 (antibody, human IgG1, kappa, V domains shown, Chimeric IgG1 kappa) VH: EVQLQQSGPVLVKPGASVKMSCKASGYTFSDYFMNWVKQSHGKSLEWIGIINSYSGGTSYNQKFKGKATLTVDKSSSTAYMELNSLTSEDSAVYYCARWMDYWGQGTSVTVSS VL: DVQITQSPSYLAASPGETITINCRTSESISKHLAWYQEKPGKTNKLLIYSGSTLQSGIPSRFSGSGSGTDFTLTISSLEPEDFAMYYCQQHNEYPWTFGGGTKLEIKR"
